Drawing on patent US20060019338A1, this text covers calcium mobilization (aequorin luminescence) EC50 for two substances.

Experiment [1] concerns the target squirrel monkey prokineticin receptor 2 (PKR2) (squirrel monkey). Kind of experiment: cell-based or functional assay.
Experiment [2] addresses rhesus monkey prokineticin receptor 1 (PKR1) (rhesus monkey). In words: cell-based or functional assay.

For “recombinant human PK1 (from UniProt P58294 20-105) (ligand)”, the calcium mobilization (aequorin luminescence) EC50 in experiment [1] came to 10 nM.
Regarding “recombinant human PK2 (from UniProt Q9HC23 28-129) (ligand)”, the calcium mobilization (aequorin luminescence) EC50 in experiment [2] was 10 nM.
